The target of this assay is T1, host PD-1-Fc fusion protein ( ('host'; the dolphin PD-1 of …).
T1 chain: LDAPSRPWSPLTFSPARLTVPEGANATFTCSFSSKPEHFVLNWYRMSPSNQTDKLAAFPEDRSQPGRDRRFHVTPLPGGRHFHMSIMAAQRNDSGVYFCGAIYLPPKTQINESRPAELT
Put plainly: SPR; Biacore T200, 25°C; PD-1-Fc amine-coupled to a CM4 chip (acetate buffer pH 6.5); De2-Fc or PD-L1-Fc as analytes at 0-400 nM in PBS with 0.05% Tween, 30 µL/min; 1:1 Langmuir model. The conditions noted are these: both partners purified. In general terms: SPR reads the build-up and loss of mass on a sensor chip optically.

The text below walks through data of paper PMC9514091, “Discovery of the first PD-1 ligand encoded by a pathogen” (Frontiers in Immunology, 2022).

B1: host PD-L1-Fc fusion protein (Fc fusion)
chain: FTITVPKDLYVVEYGSNVTLECRFPVDKQLNLLALVVYWEMEDKKIIQFVNGEEDLNVQHSSYNQRALLLKNQLPLGKAALQITDVKLQDAGIYCCLISYGGADYKRITLKVNASYRKINQTISVDPVTSEHELMCQAEGYPEAEVIWTSSDHRVLSGKTTITSSKREEKLFNVTSTLRINTTANEIFYCIFRRLGHEENSTAELV
What is called Kd is a measure of binding affinity in units of concentration. Read a low Kd as tighter binding. The molecule B1 displayed a Kd of 6.2 nM.
